Data as given in paper PMC11253605.

Target: T1, IFIT2 (GST-Ifit2, wild type) (Mus musculus, UniProt Q64112 1-472)
T1 sequence: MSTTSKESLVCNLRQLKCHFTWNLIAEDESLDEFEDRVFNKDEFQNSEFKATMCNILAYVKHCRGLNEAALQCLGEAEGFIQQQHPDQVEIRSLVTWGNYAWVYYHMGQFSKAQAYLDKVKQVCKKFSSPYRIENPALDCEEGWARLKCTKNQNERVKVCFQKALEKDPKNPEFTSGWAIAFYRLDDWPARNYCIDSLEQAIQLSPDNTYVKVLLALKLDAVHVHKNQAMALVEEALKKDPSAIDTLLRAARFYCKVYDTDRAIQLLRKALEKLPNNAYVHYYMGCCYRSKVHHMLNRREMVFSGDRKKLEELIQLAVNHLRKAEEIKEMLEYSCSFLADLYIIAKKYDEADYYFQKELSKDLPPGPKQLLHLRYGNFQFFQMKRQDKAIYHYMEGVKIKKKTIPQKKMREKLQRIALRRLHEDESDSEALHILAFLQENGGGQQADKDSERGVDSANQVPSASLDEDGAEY
Assay: EMSA; 250 nM protein; at least two complexes; EMSA: 10 fmol labeled RNA in 10 uL, 250 nM protein, 50 mM Tris pH 8, 90 mM NaCl, 1 mM MgCl2, 9% glycerol, 0.05% Triton X-100, 30 min on ice; 6% native PAGE at 4 C
Conditions: protein: recombinant; tags: N-terminal GST (pGEX-6P-3); chain copies: 2; label: 5'-32P (T4 PNK); single strand

AUUAAUUUAUAAUUUAAAUUAUUUUCUACUUU (ssRNA) [32-nt AU-rich ssRNA]
binding result: binds
